The values below come from publication PMC6351639, “Synergistic effect of acetyl xylan esterase from Talaromyces leycettanus JCM12802 and xylanase from Neocallimastix patriciarum achieved by introducing carbohydrate-binding module-1” (AMB Express, 2019).

Substrate in this series: CC(=O)Oc1ccc([N+](=O)[O-])cc1
The series is described as follows: purified protein. It is filed as biochemical, Evansstolkia leycettana. The settings on record: optimal conditions, 55 °C, 20 mM citric acid-Na2HPO4 pH 6.0 (standard assay), free enzyme.

B1: AXE (Evansstolkia leycettana) (protein)
chain: VAVDHDGARLARRITRGSLQQVTNFGSNPTNVGMYIYVPNNLATNPGIVVAIHYCTGSAQAYYSGSPYAQLAEQYGFIVIYPSSPYSGTCWDVSSQAALTHNGGGDSNSIANMVTWTISQFNADTSKVFVTGSSSGAMMTNVMAATYPELFAAATVYSGVPAGCFVSSTNQVDAWNSSCAQGQVIDTPAQWASVAENMYPGYTGPRPRMQIYHGSVDTTLYPQNYYETCKQWAGVFGYNYDSPQQTINNDPEANYQTTIWGPNLQGIFATGVGHTVPIHGTQDMEWFGFA
notes: hydrolase domain only, linker and CBM1 (310-380) removed; signal peptide removed; no tag stated; pPIC9, secreted from Pichia pastoris GS115
As usually defined, the Km is the concentration of substrate that gives half-maximal velocity. Broadly, the Vmax is the top rate of the reaction or transport when substrate is in excess. One may read the kcat as the maximal rate divided by the concentration of active sites. As a reminder, the kcat/Km is the turnover number divided by the Michaelis constant. As to B1, the Km turned out to be 720 ± 30 µM, the Vmax was 625 µmol/min/mg, the kcat was determined as 326 ± 17 s⁻¹ and the kcat/Km is 453000 ± 18000 M⁻¹ s⁻¹.

B2: AXE + CBM1 (Evansstolkia leycettana) (protein)
chain: VAVDHDGARLARRITRGSLQQVTNFGSNPTNVGMYIYVPNNLATNPGIVVAIHYCTGSAQAYYSGSPYAQLAEQYGFIVIYPSSPYSGTCWDVSSQAALTHNGGGDSNSIANMVTWTISQFNADTSKVFVTGSSSGAMMTNVMAATYPELFAAATVYSGVPAGCFVSSTNQVDAWNSSCAQGQVIDTPAQWASVAENMYPGYTGPRPRMQIYHGSVDTTLYPQNYYETCKQWAGVFGYNYDSPQQTINNDPEANYQTTIWGPNLQGIFATGVGHTVPIHGTQDMEWFGFAGESTGGGTTTTSATTTTTSKPTSTTSSGGSTSTAVAQHWGQCGGIGWTGPTTCVSPYTCTFVNDYYYQCL
notes: mature full-length: hydrolase domain 20-309, S/T-rich linker 310-342, CBM1 343-380; signal peptide removed; no tag stated; pPIC9, secreted from Pichia pastoris GS115
For B2, the Michaelis constant (Km) was 500 ± 20 µM, the Vmax was determined as 455 µmol/min/mg, the kcat came out at 306 ± 9 s⁻¹ and the catalytic efficiency (kcat/Km) turned out to be 612000 ± 12000 M⁻¹ s⁻¹.
